Results published in paper PMC10945814.

Target: Abx(+)D, TcmI-like aromatase/cyclase of the (+)-anthrabenzoxocinone pathway (Actinomycetes sp. MA7150)
Assay: crystal structure

stoichiometry N: 2
Substance: Abx(+)D, TcmI-like aromatase/cyclase of the (+)-anthrabenzoxocinone pathway (enzyme)
